Source: the nanobody polyreactivity screen of Harvey et al. (2022)

assay: yeast display, Sf9 membrane polyspecificity reagent, FACS + sequencing; frameworks hold sequencing errors
Procedure, shortened: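 Nanobodies from a synthetic yeast display library (Saccharomyces cerevisiae BJ5465), induced 36–48 hours with galactose, were stained 1 hour at 4 °C with 10% biotinylated, detergent-solubilized Sf9 membrane reagent, enriched on streptavidin microbeads, then FACS-sorted. Anti-HA (expression) and streptavidin (reagent binding) fluorescence set low and high (top ~1%) gates. Polyreactivity labels come from the gate of origin. Genes were colony-PCR amplified, MiSeq 2 × 250 sequenced and filtered by CDR length.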

Sequence | polyreactivity (PSR sort gate)
QVQLVESGGGLFQAGGSLRLSCAASGSTFDTYAMGWYRQAPGKERELVAAISYRGGNTYYADSVKGRFTISRDNAKNTVYLQMNSLKPEDTAVYYCNAGVSIGRSRRYDYWGQGTQVTVSS | low polyreactivity
QVQLVESGGGLFQAGGSLRLSCAASGSTFGRYAMGWYRQAPGTEREWLAAISRRGGSTYYADSVKGRFTISRDNAKNTVYLQMNSLKPEDSAVYYCATGYPIDLGREFDYWGQGFQVTVSS | high polyreactivity
QVQLVESGGGLFQAGGSLRLSCAASGSTFNTNAMAWYRHAPGKERELVAAISWSSTRTYYADSVKWRFTISRDNAKNTVYLQMNSLKPEDTAVYYCAAATYQSRYFQRFDYWGQGTQVTVSS | high polyreactivity
QVQLVESGGGLFQAGGSLRLSCAASGSTFRANAMGWYRQAPGKETELVAAISQSGGITYYADSVKVRFTISRDNAKNTVYLQMKSLKPEDTAVYYCAALGYRIIRGRFYSWGQGTQVTVSS | high polyreactivity
QVQLVESGGGLFQAGGSLRLSCAASGSTFRHYDMAWYRQAPGKERELVAVISWGGTSTYYADSVKGRFTISRDNAKNTVYLQMHSLKPEDTGVYYCNKAYFPIFKGYEMYYWGQGTQVTVST | low polyreactivity
QVQLVESGGGLFQAGGSLRLSCAASGSTFSPNGMGWYRQSPGKERELVAVISTTGGGTYYADSVKVRFTISRDNAKNTVYLQLNSLKPEDTAVYYCAADVWTYSWSWRKYVEFNYWGQGTQVTVSS | high polyreactivity
QVQLVESGGGLFQAGGSLRLSCAASGSTFYIYAMGWYRQAPGKEREFFAAIDFSGSSTYADSEKGRFTISRDNAKNTVYVQMNSLKPEDTAVYYCAAYQIYQYDGPYDYWGQGTQVTVSS | low polyreactivity
QVQLVESGGGLFQAGGSLRLSCAASGSTLAGYTMGWYRQAPGKERELVASISFTGGSTYYADSVKGRFTISRDNAKNTVYLQMNSLKPEDTAVYYCAAGTWQYYFLYDTYRRYYYWGQGTQVTGSS | high polyreactivity
QVQLVESGGGLFQAGGSLRLSCAASGSTLVKNAMGWYRQAPGKERELVAAIDYNDDITYYADSVKGRFTISRDTAKNTVYLQMNSLKPEDTAVYYCAAEPYAGPELDYWGQGTQVTVSS | high polyreactivity
QVQLVESGGGLFQAGGSLRLSCAASGTTFVRYAMGCYRQAPGKDRQLVAAISSSGATTYYADSVKGRFTISRDNAKNTVYLQMNSLKPEDTEVYYCARLYVKRHGYWGQGSQVTVSS | high polyreactivity
QVQLVESGGGLFQAGGSLRLSCAATGSIFDYYAMGWYRQAPGKERELDGTITSGVSTYYADSVKGRFTISRDNAKNTVYLQMISLKPEDTAVYYCARDYAKSQDLYKYDYWGQGTQVTGSS | low polyreactivity
QVQLVESGGGLFQAGGSLRLSCAPSGSIFTTYAMGWYRQAPGKERELVAAITDTCSTNYADSVKGRFTISRDNAKNTVYLQMNSLKPEDTAVYYCAVDLGYEYDWGQGTEVTVSS | low polyreactivity
QVQLVESGGGLFQAGGSLRLSCSASGNTFVPYDMGWYRQAPGKERELVAGITSGGSTYYADSVKGRFTISRDNAKNTVYLQMNSLKPEDTAVYYCAADYYLWVYWYDYWGEGTQVTVSS | high polyreactivity
QVQLVESGGGLFQAGGSLRLSSAASGSTFSYYVMGWYRQAPGKERELVAAIDYSGDSTYYADSVKGRFTLSRDNAKNTVYLQMNSLKPEDTAVYYCAADDYPWNRYEYWGQGTQVTVSS | low polyreactivity
QVQLVESGGGLFQAGGSLRLTCAASGSTFPYHTMGWYRQATGKQRDFVAAITGDGGTTYYADSVKGRFTISRDNAKNTVYLQMNSLKPEDTAVYYCNALYAPYGWFYCLYDYWGPGTQVTVSS | low polyreactivity
QVQLVESGGGLFQAGGSLRVSCAASGSTFYLYAMGWSRQAPGKEREWVAAISRRGGTTNYADSVKGRFTISRDNAKNSVYLQMNSLKPEDTAVYDCGADYQSVGGAEYDYWGQGTQVTVSS | high polyreactivity
QVQLVESGGGLFQAGGSLSLRCAASGSSFDDYTMGWYRQATGKETELLAAISSAGSTNYADSVKGRFTISRDNAKNTVYLQMNILKPEDTAVYSFAAQVHPLRYDYWGQGTQVTVSS | low polyreactivity
QVQLVESGGGLFQAGGSLSLSCAASGFIFSGYAMGWYRQAPGTERELVAAITWSCSNTFYADSVKGRFTISRDNAKITVFLQMNSLKPEDTAVYYCTAVSKYKRSDYYYWGQGTQVTVSS | high polyreactivity
QVQLVESGGGLFQAGGSLSLSCAASGSTFVKYAMGWYRQAPGKERELVATITRRGGNTYYADSVKGRFKISRVNAKNTVYIQLNSLKPEDTEVYYCNRADYRASYSGQGSYDYWGQGTQVTVSS | high polyreactivity
QVQLVESGGGLFQAGGSRRLICSASGFTFASNAMGWYRQAPGKERELVAAITSRGGGTYYADSVKGRFTISRDNAKNTVYLQMNSLKPEDTAVYYCNVVYGVRYFNSRGYYYWGQGTQVTVSS | high polyreactivity
QVQLVESGGGLFQAGRSLRLSSPASGSSFISYAMGWYRQAPGKDRELVAAITSRGGRTYYADSVKGRFTISRDNAKYTVDLQMNCLKPDDTAVYYCAASFSYRIRRYDYWGQGTQVTVSS | high polyreactivity

Sequence | polyreactivity (PSR sort gate)
QVQLVESGGGLFQAGVSLRLSCAASGRTLQIYHMGWYRQAPGKERELVAAISSSGGSTYYADSVKGRFTISRDNAKNTVYVQMNSLKAEDTAVYYCAADPRGYGYTRKGYYWGQGTQVTVSS | high polyreactivity
QVQLVESGGGLFQEGGSLRLSCAASGFTFLVYAKGWYRQAPGKERQLVAAITWSGDSTYYADSVKGRFTISRDNAKNTVYLQMNSLKPEDTAFYYCAAAYRYGTLYYYWGQGTQVTVSS | low polyreactivity
QVQLVESGGGLFQEGGSLRLSCAASGSIFTFYAMGWYRQAPGKERELVAAITSGGSTTYADSVKGRFTISRDNAKNTVYLQMNSLKREDTAVFYCNAESWWGYYYWGQVTQVTVSS | high polyreactivity
QVQLVESGGGLFQEGGSLRLSCAASGSTFANYVMGWYRQAPGKEREFVAGITRSGGSTYYADSVKGRFTISRDNAKNTVYLQMNSLKPEDTAVYYCNKVRRASYYYEYDYWGQVTQVTVSS | low polyreactivity
QVQLVESGGGLFQEGGSLRLSCAPCGLIFFSYAMGWYRQAPGTERELVAAISRLGGRTYYADSVKGRFTISRDNAKNTVYLQMNSLKPEDTAVYYCATRVWTPIFGYEYWGQGTQVTVSS | low polyreactivity
QVQLVESGGGLGHAGGSLRLSCAASGGIYDYYAMGWNRQAPGKERELVTAITRSGSSTFYADSVKGRFTISRDNAKNTVYLQMKSVKPEDTAVYYCAAPYYYFAVYYGYIFEYDYWGQGTQVTVSS | low polyreactivity
QVQLVESGGGLGQAGGSLRLSCAASGFTFDFYAMGWYRQAPGKERELVAAISKNDGTTYYADSVKGRFTISRDNAKNTVYLQMNSLKPEDTAVYYCAAESGYPVYTYVSSGDYWGQGTQVTVSS | low polyreactivity
QVQLVESGGGLGQAGGSLRLSCAASGFTFRKYVMGWYRQAPGKERALVAAITSGGSTNYADSVKGRFTISRDNAKNTVYLQMNSVIPEDTAVYYCATVPGARVHYPTGDYWGQGTQVTVSS | high polyreactivity
QVQLVESGGGLGQAGGSLRLSCAASGIIFLDNAMGWYRQAPGKERELVAAYADSVKGRFTISRDNSNNTVYLQMNSLKPEDTAVYYCNVVLYKYSPTDSWITYDYWGQGTQVTVSS | low polyreactivity
QVQLVESGGGLGQAGGSLRLSCAASGITFRSYAMGWYRQAPGKERELVATISWSGGITYYADSVKGRFTISRDNAKNTVYLQMNSLKPEDTAVYYCAKASQSWGPDDYYYWGQGTQVTVSS | low polyreactivity
QVQLVESGGGLGQAGGSLRLSCAASGITFVVYAMGWYRQAPGKERELVATISSGGSTNYADSVKGRFTISRDNAKNTVYLQMNSLKPEDTAVYYCNRVSVYRSSHLLWGGYWGQGTQVTVSS | low polyreactivity
QVQLVESGGGLGQAGGSLRLSCAASGRIFFGNARGWYRQAPGKEREFVAAISLTGVTTSYADSVKGRFTISRDNAKNTVYLQMNSLKPEDTAVYYCARDYSYYTHAYDYWGQGTQVTVSS | low polyreactivity
QVQLVESGGGLGQAGGSLRLSCAASGRIFYRNAMGWYRQAPGKERELVAAISSSGSTNYADSVKGRFTISRDNAKNTVYLQMNSLKPEDTAVDYCNDVVRWGYGYDYWGQGTQVTVSS | high polyreactivity
QVQLVESGGGLGQAGGSLRLSCAASGRIVSNAMGWYRQAPGKERELVAAISRRGGSTYYADSVKGRFTISRENAKNTVYLQMNSLIPEDTAVYSCASRPFFTYRWYDYWGQGTQVTVSS | high polyreactivity
QVQLVESGGGLGQAGGSLRLSCAASGRTFYYNAMGWYRQAPGKERELVAAITRSGGRTYYADSVKGRFTISRDTAKNTVYLQMNSLKPEDTAVYYCAARWSSYYSSMDYWGQGSQVTVSS | high polyreactivity
QVQLVESGGGLGQAGGSLRLSCAASGRTLGAYAMGWYRQAPGKERELVAAISGSGGSTYYADSVKGRFTISRDNAKNTVYLQMNSLKPEDTAVYYCAAVLSRYGQSISMYYWGQGTQVTVSS | high polyreactivity
QVQLVESGGGLGQAGGSLRLSCAASGSIFGYNVMGWYRQAPGKERELVAGITSGGSTNYADSVKGRFTISRDNAKNTVSLQMNSLKPEDTAVYYCNAEGVFGDGRSGFYWYDYWGEGTQVTVSS | low polyreactivity
QVQLVESGGGLGQAGGSLRLSCAASGSIFSFYAMGWYRQAPGKERELVAVINTDGDNTYYADSVKGRFTISRDNAKNTVYLQMNSLKAEDSAVYYCAASVSSYSYTRGGYWGQGTQVTVSS | high polyreactivity
QVQLVESGGGLGQAGGSLRLSCAASGSIFYYYAMGWYRQAPGKERELVAGINSGDSTYYADSVKGRFTISRDNAKNTVYLQMNRLKPEDTAVYYCAASADGWYEYWGQGTQVTVSS | low polyreactivity
QVQLVESGGGLGQAGGSLRLSCAASGSLITQNALGWYRLAPGKEWELVADISRGSTYSADSVKGRFTISRDNAKNTVYLQLTSLKPEDTALYYSAADDIAHPSFVSTVDVGMDYWGQGPQVTVSS | low polyreactivity
